Experimental findings from patent US20170107293A1 (BIOINVENT INTERNATIONAL, published 2017) are described below.

Positions count from the first letter of the chain named.

What is called Kd is the concentration at which binding is half-saturated. A word on the koff: it is a measure of how fast the partners let go of each other. Broadly, the kon is the rate constant with which the complex forms.

Assay [1] addresses T1, human FcγRIIA on cells (human, UniProt P12318 34-317).
T1 construct: whole, on cells; also called hFcγRIIA; FcγRIIA^+ve CHO
T1 sequence (looked up): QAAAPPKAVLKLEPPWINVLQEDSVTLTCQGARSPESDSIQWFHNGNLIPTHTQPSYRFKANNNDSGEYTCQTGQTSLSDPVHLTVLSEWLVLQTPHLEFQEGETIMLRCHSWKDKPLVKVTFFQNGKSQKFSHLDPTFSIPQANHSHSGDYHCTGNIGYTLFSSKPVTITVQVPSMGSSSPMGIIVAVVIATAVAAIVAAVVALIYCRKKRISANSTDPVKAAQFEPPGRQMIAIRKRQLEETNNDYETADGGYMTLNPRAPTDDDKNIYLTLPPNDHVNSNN
Briefly: binding to FcγRIIA-transfected CHO-k1 cells.

For assay [2], the target named is T1, human FcγRIIA on cells. Put plainly: flow cytometry on human PBMC populations, MFI; monocytes and neutrophils read as hFcγRIIA-bearing as in the legend. For orientation: A flow cytometer gives signals particle by particle.
Assay [3] deals with T2, human FcγRIIB on cells (human, UniProt P31994 43-310).
T2 construct: whole, on cells; also called hFcγRIIB; CD32B
T2 sequence (looked up): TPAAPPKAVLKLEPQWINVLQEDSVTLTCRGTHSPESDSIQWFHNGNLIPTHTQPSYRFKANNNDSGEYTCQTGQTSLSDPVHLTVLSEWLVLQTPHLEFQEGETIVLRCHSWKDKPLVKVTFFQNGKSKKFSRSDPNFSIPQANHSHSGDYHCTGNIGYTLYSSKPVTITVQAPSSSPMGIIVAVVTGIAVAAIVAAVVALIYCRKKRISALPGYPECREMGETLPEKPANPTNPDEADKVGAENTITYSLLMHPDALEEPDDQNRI
Briefly: flow cytometry, mAb at 0.1, 1 and 10 µg/ml on B cells, MFI.

Assay [4] addresses T3, Soluble hFcγRIIB (R & D Systems) (human, UniProt P31994 46-217).
T3 construct: Bought reagent; also called hFcγRIIB fusion protein
T3 sequence (looked up): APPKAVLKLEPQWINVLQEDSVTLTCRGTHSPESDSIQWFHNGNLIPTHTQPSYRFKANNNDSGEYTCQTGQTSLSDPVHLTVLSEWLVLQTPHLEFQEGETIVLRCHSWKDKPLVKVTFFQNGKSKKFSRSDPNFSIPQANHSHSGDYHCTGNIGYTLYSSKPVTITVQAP
Put plainly: SPR (Biacore T100), mAb immobilised on CM5, soluble hFcγRIIB injected, 1:1 model. As to the method: (§1) A BIAcore T100 analyzer (GE Healthcare, UK) was used to determine the binding affinity of the hFcγRIIB mAb, as described elsewhere.²⁵ mAb were immobilized onto a CM5 sensorchip (GE Healthcare, UK), using standard amine coupling according to the manufacturer's instructions. Soluble hFcγRIIB (0.16-100 nM; R & D Systems, UK) was injected for 5 minutes and dissociation monitored for 10 minutes. Background binding to the control flow cell was monitored and subtracted automatically. The KD values were calculated from the 1:1 binding model using the BIAcore T100 Evaluation software.

The target of assay [5] is T3, Soluble hFcγRIIB (R & D Systems). Briefly: SPR (Biacore T100), mAb immobilised on CM5, soluble hFcγRIIB injected, 1:1 model; column headed KD (1/s). As to the method: as §1
On the technique in general: SPR reads the build-up and loss of mass on a sensor chip optically.

Assay [6] shares this target. Put plainly: SPR (Biacore T100), mAb immobilised on CM5, soluble hFcγRIIB injected, 1:1 model; column headed KA (1/MS). As to the method: as §1
Assay [7] concerns the target T4, cynomolgus monkey FcγRIIB (cynomolgus monkey, UniProt A0A140HDP4 43-312).
T4 construct: whole, on cells; also called FcγRIIB in other species
T4 sequence: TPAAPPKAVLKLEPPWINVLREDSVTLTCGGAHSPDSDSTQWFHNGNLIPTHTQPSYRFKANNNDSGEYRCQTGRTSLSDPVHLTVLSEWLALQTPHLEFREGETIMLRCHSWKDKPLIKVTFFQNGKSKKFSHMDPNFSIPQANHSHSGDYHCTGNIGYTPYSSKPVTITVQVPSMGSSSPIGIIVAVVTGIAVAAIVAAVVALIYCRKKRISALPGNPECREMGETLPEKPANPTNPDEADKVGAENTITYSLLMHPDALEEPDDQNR
Briefly: IHC on frozen tissue sections.

The target of assay [8] is T5, rat FcγRIIB (rat, UniProt A0A0G2K9R6 42-295).
T5 construct: also called FcγRIIB in other species
T5 sequence: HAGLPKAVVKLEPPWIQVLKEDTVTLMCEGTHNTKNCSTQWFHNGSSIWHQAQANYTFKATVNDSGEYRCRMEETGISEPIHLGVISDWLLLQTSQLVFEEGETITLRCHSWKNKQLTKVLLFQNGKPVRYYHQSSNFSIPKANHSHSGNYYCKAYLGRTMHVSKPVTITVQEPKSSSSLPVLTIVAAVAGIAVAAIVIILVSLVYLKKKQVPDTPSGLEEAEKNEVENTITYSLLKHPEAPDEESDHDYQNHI
Put plainly: IHC on frozen tissue sections.

The target of assay [9] is T6, mouse FcγRIIB (mouse, UniProt P08101 30-330).
T6 construct: whole, on cells; also called mFcγRII; FcγRIIB in other species
T6 sequence (looked up): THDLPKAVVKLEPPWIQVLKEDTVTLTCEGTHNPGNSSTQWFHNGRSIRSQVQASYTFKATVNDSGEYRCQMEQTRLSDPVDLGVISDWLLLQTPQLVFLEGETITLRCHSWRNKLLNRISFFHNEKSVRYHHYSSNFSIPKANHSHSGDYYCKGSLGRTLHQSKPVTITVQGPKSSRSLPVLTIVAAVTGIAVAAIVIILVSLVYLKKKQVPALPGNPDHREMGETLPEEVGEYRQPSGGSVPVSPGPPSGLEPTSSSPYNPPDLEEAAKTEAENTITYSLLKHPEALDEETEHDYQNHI
Put plainly: IHC on frozen tissue sections.

For assay [10], the target named is T3, Soluble hFcγRIIB (R & D Systems). Put plainly: SPR, mAb immobilised, soluble hFcγRIIB injected. As to the method: as §1
Assay [11] has the same target. Briefly: SPR, mAb immobilised, soluble hFcγRIIB injected; column headed KD (1/s). How it is done: as §1
For assay [12] the target is unchanged. Briefly: SPR, mAb immobilised, soluble hFcγRIIB injected; column headed KA (1/MS). As to the method: as §1

B1: 6C12 (antibody, human IgG1, V domains shown)
VH: EVQLLESGGGLVQPGGSLRLSCAASGFTFSSYGMHWVRQAPGKGLEWVAVISYDGSNKYYADSVKGRFTISRDNSKNTLYLQMNSLRAEDTAVYYCARERRDAFDIWGQGTLVTVSS
VL: QSVLTQPPSASGTPGQRVTISCTGSSSNIGAGYDVHWYQQLPGTAPKLLIYSDNQRPSGVPDRFSGSKSGTSASLAISGLRSEDEADYYCATWDSDTPVFGGGTKLTVLG
notes: hFcγRIIB mAb, human IgG1 (WT); Only VH/VL tied to the clone; also called Antibody clone: 6C12
In the case of B1, in assay [1], the binding result was “no binding”.

B2: 6H08 (antibody, human IgG1, V domains shown)
VH: B1 VH with S30N, S31N, R72K, R100Y, R101K
VL: QSVLTQPPSASGTPGQRVTISCTGSSSNIGSNTVNWYQQLPGTAPKLLIYDNNKRPSGVPDRFSGSKSGTSASLAISGLRSEDEADYYCQAWGTGIRVFGGGTKLTVLG
notes: hFcγRIIB mAb, human IgG1 (WT); Only VH/VL tied to the clone; also called Antibody clone: 6H08
On to B2, for which, in assay [1], the binding result was “no binding”.

B3: 4B02 (antibody, human IgG1, V domains shown)
VH: B1 VH with S31N, Y32H, S56T, K65R, R100T, R101W, I106V
VL: B2 VL with T23S, T33N, V34A, G93D, T94S, G95S, I96T, R97V
notes: hFcγRIIB mAb, human IgG1 (WT); Only VH/VL tied to the clone; also called Antibody clone: 4B02
Take B3: in assay [1], the binding result is given as “no binding”.

B4: 6A09 (antibody, human IgG1, V domains shown)
VH: EVQLLESGGGLVQPGGSLRLSCAASGFTFSSYGMHWVRQAPGKGLEWVAVTSYDGNTKYYANSVKGRFTISRDNSKNTLYLQMNSLRAEDTAVYYCAREDCGGDCFDYWGQGTLVTVSS
VL: QSVLTQPPSASGTPGQRVTISCTGSSSNIGAGYDVHWYQQLPGTAPKLLIYGNSNRPSGVPDRFSGSKSGTSASLAISGLRSEDEADYYCAAWDDSLNEGVFGGGTKLTVLG
notes: hFcγRIIB mAb said to be likely dual-specific for hFcγRIIA and B; human IgG1 (WT); Only VH/VL tied to the clone; also called Antibody clone: 6A09
Regarding B4, the binding result in assay [2] is on record as “binds”.

B5: 6C11 (antibody, human IgG1, V domains shown)
VH: EVQLLESGGGLVQPGGSLRLSCAASGFTFDDYGMSWVRQAPGKGLEWVSAISGSGSSTYYADSVKGRFTISRDNSKNTLYLQMNSLRAEDTAVYYCAGGDIDYFDYWGQGTLVTVSS
VL: B4 VL with I29F, G52E, S54N, N55K, E99G, G100P
notes: hFcγRIIB mAb, human IgG1 (WT); Only VH/VL tied to the clone; also called Antibody clone: 6C11
With B5, in [1], the binding result was “no binding”.

B6: 5E12 (antibody, human IgG1, V domains shown)
VH: B1 VH with S56I, Y59D, V64M, R101K
VL: B4 VL with G52S, S54N, N55Q, A92T, E99G, G100L
notes: hFcγRIIB mAb, human IgG1 (WT); Only VH/VL tied to the clone; also called Antibody clone: 5E12
Regarding B6, in assay [1], the binding result is listed as “no binding”.

B7: 1E05 (antibody, human IgG1, V domains shown)
VH: EVQLLESGGGLVQPGGSLRLSCAASGFTFSTYAMNWVRQVPGKGLEWVAVISYDGSNKNYVDSVKGRFTISRDNSKNTLYLQMNSLRAEDTAVYYCARNFDNSGYAIPDAFDIWGQGTLVTVSS
VL: B4 VL with G52D, S54N, N55S, N98G, E99G, G100P
notes: Only VH/VL tied to the clone; also called Antibody clone: 1E05
As for B7, the binding result in assay [3] was “no binding (tested: 10 µg/ml)”.

B8: 6G08 (antibody, human IgG1, V domains shown)
VH: EVQLLESGGGLVQPGGSLRLSCAASGFTLSSYGISWVRQAPGKGLEWVSGISGSGGNTYYADSVKGRFTISRDNSKNTLYLQMNSLRAEDTAVYYCASSVGAYANDAFDIWGQGTLVTVSS
VL: B4 VL with N53D, S54T, E99G, G100P
notes: hFcγRIIB mAb (agonistic), human IgG1 (WT); Only VH/VL tied to the clone; also called Antibody clone: 6G08
In the case of B8, the binding result in assay [1] was “no binding”. This molecule also gave a Kd in [4] of 713 nM. This molecule also showed a koff in assay [5] of 0.337 s⁻¹. For the same molecule, in [6], the kon came out at 472000 M⁻¹ s⁻¹.

B9: 6G03 (antibody, human IgG1, V domains shown)
VH: EVQLLESGGGLVQPGGSLRLSCAASGFTFGSYGMHWVRQAPGKGLEWVSGISWDSAIIDYAGSVKGRFTISRDNSKNTLYLQMNSLRAEDTAVYYCAKDEAAAGAFDIWGQGTLVTVSS
VL: QSVLTQPPSASGTPGQRVTISCTGSSSNIGAGYDVHWYQQLPGTAPKLLIYGNTDRPSGVPDRFSGSKSGTSASLAISGLRSEDEADYYCAAWDDSLSGPVVFGGGTKLTVLG
notes: hFcγRIIB mAb, human IgG1 (WT); Only VH/VL tied to the clone; also called Antibody clone: 6G03
Regarding B9, the binding result in assay [1] was “no binding”.

B10: 1C04 (antibody, human IgG1, V domains shown)
VH: EVQLLESGGGLVQPGGSLRLSCAASGFTFSSYAMSWVRQAPGKGLEWVSSISDSGAGRYYADSVEGRFTISRDNSKNTLYLQMNSLRAEDTAVYYCARTHDSGELLDAFDIWGQGTLVTVSS
VL: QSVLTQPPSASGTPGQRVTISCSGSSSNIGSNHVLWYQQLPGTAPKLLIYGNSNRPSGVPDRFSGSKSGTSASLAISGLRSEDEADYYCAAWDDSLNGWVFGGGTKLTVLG
notes: Only VH/VL tied to the clone; also called Antibody clone: 1C04
Regarding B10, in [3], the binding result is reported as “no binding (tested: 10 µg/ml)”.

B11: 2A09 (antibody, human IgG1, V domains shown)
VH: EVQLLESGGGLVQPGGSLRLSCAASGFTFSNAWMSWVRQAPGKGLEWVAYISRDADITHYPASVKGRFTISRDNSKNTLYLQMNSLRAEDTAVYYCTTGFDYAGDDAFDIWGQGTLVTVSS
VL: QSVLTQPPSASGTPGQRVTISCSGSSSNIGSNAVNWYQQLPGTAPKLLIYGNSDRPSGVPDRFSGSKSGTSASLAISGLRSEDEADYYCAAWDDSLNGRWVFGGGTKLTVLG
notes: Only VH/VL tied to the clone; also called Antibody clone: 2A09
Consider B11, for which, in assay [3], the binding result is recorded as “no binding (tested: 10 µg/ml)”.

B12: 7C07 (antibody, human IgG1, V domains shown)
VH: EVQLLESGGGLVQPGGSLRLSCAASGFTFSSYGMHWVRQAPGKGLEWVAVISYDGSNKYYADSVKGRFTISRDNSQNTLYLQMNSLRAEDTAVYYCAREFGYIILDYWGQGTLVTVSS
VL: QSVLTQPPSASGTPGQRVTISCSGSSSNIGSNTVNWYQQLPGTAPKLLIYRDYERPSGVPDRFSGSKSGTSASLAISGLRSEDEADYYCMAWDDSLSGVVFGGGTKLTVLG
notes: Antagonistic hFcγRIIB mAb, human IgG1 (WT); Only VH/VL tied to the clone; also called Antibody clone: 7C07
For B12, the binding result in [7], in assay [8] and in [9] was “no binding” each time. In addition, the Kd in assay [10] and in [4] was 23.9 nM throughout. Also, the koff in assay [11] and in [5] was 0.0185 s⁻¹ throughout. The kon in [12] and in assay [6] was 913000 M⁻¹ s⁻¹ each time.
